# Data taken from US20150175710A1 (published 2015).
# Columns and labels:
# Test in all cases: ELISA
# 17G10 = biological target: 17G10
# 12D9 = biological target: 12D9
# 6B11 = biological target: 6B11
binder,measurement,setting,value
mouse ENO1 (receptor) MSILRIHAREIFDSRGNPTVEVDLYTAKGLFRAAVPSGASTGIYEALELRDNDKTRFMGKGVSQAVEHINKTIAPALVSKKVNVVEQEKIDKLMIEMDGTENKSKFGANAILGVSLAVCKAGAVEKGVPLYRHIADLAGNPEVILPVPAFNVINGGSHAGNKLAMQEFMILPVGASSFREAMRIGAEVYHNLKNVIKEKYGKDATNVGDEGGFAPNILENKEALELLKTAIAKAGYTDQVVIGMDVAASEFYRSGKYDLDFKSPDDPSRYITPDQLADLYKSFVQNYPVVSIEDPFDQDDWGAWQKFTASAGIQVVGDDLTVTNPKRIAKAASEKSCNCLLLKVNQIGSVTESLQACKLAQSNGWGVMVSHRSGETEDTFIADLVVGLCTGQIKTGAPCRSERLAKYNQILRIEEELGSKAKFAGRSFRNPLAK,Kd,17G10,33.9 nM
same,Kd,12D9,0.39 nM
same,Kd,6B11,3.04 nM
